Experimental data as given in US20210380703A1 (RIGEL PHARMACEUTICALS, published 2021).
Substitutions are numbered along the chain they refer to.

B1: 370_C04 (antibody, V domains shown)
VH: EVQLLESGGGLVQPGGSLRLSCAASGFTFSSYGMNWVRQAPGKGLEWVASINYNSGYTSYADSVKGRFTISRDNSKNTLYLQMNSLRAEDTAVYYCARSATWHDTHLDYWGQGTLVTVSS
VL: DIQMTQSPSSLSASVGDRVTITCRASQSILSYLNWYQQKPGKAPKLLIYAASSLQSGVPSRFSGSGSGTDFTLTISSLQPEDFATYYCQQSYENPLTFGGGTKVEIK
notes: VH/VL only
B2: 374_C04 (antibody, V domains shown)
VH: B1 VH with G33S, S50G, T58K
VL: B1 VL with S31T, N94L
notes: VH/VL only
B3: 373_G05 (antibody, V domains shown)
VH: B1 VH with G33S, S50G, S55G
VL: B1 VL with S52T, Q55A, N94L
notes: VH/VL only
B4: 373_E04 (antibody, V domains shown)
VH: B1 VH with S30D, G33S, S50G, S55G
VL: B1 VL with S31T, L33V, S52T, L54R, Q55A, E93N, N94S
notes: VH/VL only
B5: 374_C05 (antibody, V domains shown)
VH: B1 VH with S30D, G33S, S50G, T58K
VL: B1 VL with L30I, S31R, L47V, S52T, L54R, Q55A, E93D
notes: VH/VL only
B6: 374_C08 (antibody, V domains shown)
VH: B1 VH with S30D, A49S, S50G, T58K, H106A
VL: B1 VL with L33V, A51V, S52T, L54R, Q55A, E93D, N94S
notes: VH/VL only
B7: 372_D04 (antibody, V domains shown)
VH: B1 VH with G33S, S50N, S59G
VL: B1 VL with S31T, S52T, Q55H, E93D, N94L
notes: VH/VL only
B8: 373_B03 (antibody, V domains shown)
VH: B1 VH with G33S, S50G, T58K
VL: B1 VL with S31T, L47V, S52T, Q55A, E93D
notes: VH/VL only
B9: 370_H03 (antibody, V domains shown)
VH: B1 VH with S30D, G33S, S50G, T58K, S59G
VL: B1 VL with S31T, S52T, Q55A, E93D, N94T
notes: VH/VL only
B10: 374_D12 (antibody, V domains shown)
VH: B1 VH with S30D, G33S, A49S, S50G, S55G, S59G
VL: B1 VL with L30V, L33V, L47V, S52T, L54R, Q55A, E93D, N94L
notes: VH/VL only
B11: 371_H01 (antibody, V domains shown)
VH: B1 VH with S30D, G33S, S50G, S55G, S59G
VL: not shown
notes: VH/VL only
B12: 373_B11 (antibody, V domains shown)
VH: B1 VH with G33S, S50N, T58K, S59G
VL: B1 VL with S52T, L54R, Q55A, E93D
notes: VH/VL only
B13: 373_B08 (antibody, V domains shown)
VH: B1 VH with S30D, G33S, S50N, T58K, S59G
VL: B1 VL with S31T, L47V, S52T, Q55A
notes: VH/VL only
B14: 371_F05 (antibody, V domains shown)
VH: B1 VH with G33S, S50G, T58K
VL: B1 VL with S52T, L54R, Q55H
notes: VH/VL only
B15: 374_C11 (antibody, V domains shown)
VH: B1 VH with G33S, S50G, T58K, S59G
VL: B1 VL with S31T, S52T, L54R, Q55A, N94S
notes: VH/VL only
B16: 374_A11 (antibody, V domains shown)
VH: B1 VH with S31D, G33S, S50N, T58K, S59G
VL: B1 VL with L33V, L47V, S52T, L54R, Q55A, E93S, N94S
notes: VH/VL only
B17: 370_G12 (antibody, V domains shown)
VH: B1 VH with G33S, S50G, S55G, T58K, S59G, H106A
VL: B1 VL with L30I, S31T, S52T, Q55A, Y92D, N94S
notes: VH/VL only
B18: 370_F08 (antibody, V domains shown)
VH: B1 VH with S30D, G33S, S50G, S55G
VL: B1 VL with L30I, L33V, S52T, L54R, Q55H, E93N, N94L
notes: VH/VL only
B19: 373_E06 (antibody, V domains shown)
VH: B1 VH with S30D, G33S, S50G, T58K
VL: B1 VL with S31R, S52T, Q55H, E93D
notes: VH/VL only
B20: 371_C09 (antibody, V domains shown)
VH: B1 VH with S30D, G33S, A49S, S50G, S55G, T58K
VL: B1 VL with S31T, L33V, E93D
notes: VH/VL only
B21: 373_H06 (antibody, V domains shown)
VH: B1 VH with N35H, S50G, S55G
VL: B1 VL with L30I, L33V, S52T, Q55A, E93D, N94L
notes: VH/VL only
B22: 373_C09 (antibody, V domains shown)
VH: B1 VH with S30D, G33S, S50G, T58K
VL: B1 VL with S31T, L47V, S52T, L54R, Q55A, N94L
notes: VH/VL only
B23: 374_E05 (antibody, V domains shown)
VH: B1 VH with G33S, S50G, S55G, T101N, H106A
VL: B1 VL with Y32F, L33V, L47V, S52T, L54R, Q55A, E93N, N94L
notes: VH/VL only
B24: 374_D02 (antibody, V domains shown)
VH: B1 VH with S30D, G33S, S50G
VL: B1 VL with L30S, S31T, L33V, A51V, S52T, Q55A, E93D, N94S
notes: VH/VL only
B25: 373_H10 (antibody, V domains shown)
VH: B1 VH with G33S, S50G, S55G, S59G
VL: B1 VL with L33V, S52T, L54R, Q55A, E93S, N94L
notes: VH/VL only
B26: 371_G03 (antibody, V domains shown)
VH: B1 VH with S50N, S55G, T58K, S59G
VL: B1 VL with L30V, S31T, L33V, L47V, S52T, Q55A, E93N, N94L
notes: VH/VL only
B27: 373_E03 (antibody, V domains shown)
VH: B1 VH with S30D, A49S, S50N, S55G, S59G, H106A
VL: B1 VL with L33V, L47V, S52T, L54R, Q55A, E93D, N94L
notes: VH/VL only
B28: 371_D03 (antibody, V domains shown)
VH: B1 VH with S30D, S50N, S55G, H106A
VL: B1 VL with S31T, L33V, L47V, S52T, Q55A, E93N, N94T
notes: VH/VL only
B29: 373_F03 (antibody, V domains shown)
VH: B1 VH with S30D, G33S, S50N, S59G
VL: B1 VL with S31T, L33V, S52T, L54R, Q55H, E93D, N94S
notes: VH/VL only
B30: 372_F07 (antibody, V domains shown)
VH: B1 VH with S30D, S31D, G33S, S50G, T58K, S59G
VL: B1 VL with S31T, L47V, S52T, L54R, Q55A, N94L
notes: VH/VL only
B31: 370_E07 (antibody, V domains shown)
VH: B1 VH with S30D, G33S, S50N, S55G, S59G
VL: B1 VL with S31T, S52T, L54R, Q55A, E93D
notes: VH/VL only
B32: 374_C02 (antibody, V domains shown)
VH: B1 VH with S30D, G33S, A49S, S50G, S55G, S59G
VL: B1 VL with S52T, L54R, Q55H, E93D, N94S
notes: VH/VL only
B33: 374_B09 (antibody, V domains shown)
VH: B1 VH with G33S, A49S, S50G, S55G, T58K
VL: B1 VL with L30V, S31R, L47V, S52T, Q55A, N94L
notes: VH/VL only
B34: 373_E02 (antibody, V domains shown)
VH: B1 VH with S30D, N35H, A49S, S50G, S55G, T58K, S59G
VL: not shown
notes: VH/VL only
B35: 374_E02 (antibody, V domains shown)
VH: B1 VH with G33S, A49S, S50G, S55G, T101N, H106A
VL: B1 VL with S52T, Q55A, E93D, N94L
notes: VH/VL only

Target: human ACVR2A (human, UniProt P27037 20-135, limits assumed)
Assay: ELISA
Method in brief: (§1)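 mAb binding by ELISA; antigens: hu ACVR2A, mu ACVR2A; pos ctrl biotinylated goat anti-hu kappa LC; neg ctrl hu Fc.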
Further: test concentration or dose not given here.

human ACVR2A, sequence (P27037 20-135 limits assumed): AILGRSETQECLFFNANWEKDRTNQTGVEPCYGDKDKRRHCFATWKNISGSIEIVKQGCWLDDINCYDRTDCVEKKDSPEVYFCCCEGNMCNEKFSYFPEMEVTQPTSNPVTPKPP

optical density [OD]	Binder
2.32	B1
3.74	B2
3.61	B3
3.56	B4
3.7	B5
3.29	B6
3.4	B7
3.64	B8
3.43	B9
3.55	B10
3.03	B11
3.72	B12
3.7	B13
2.89	B14
3.64	B15
3.65	B16
1.34	B17
2.34	B18

optical density [OD]	Binder
3.71	B19
3.37	B20
3	B21
3.64	B22
3.56	B23
3.06	B24
3.24	B25
3.12	B26
3.46	B27
1.54	B28
3.65	B29
3.25	B30
3.44	B31
3.68	B32
3.62	B33
3.61	B34
3.23	B35

Target: mouse ACVR2A (mouse, UniProt P27038 20-135, limits assumed)
Assay: ELISA
Method in brief: as §1

mouse ACVR2A, sequence (P27038 20-135 limits assumed): as the sequence (P27037 20-135 limits assumed) above, with K20R, V73I counted along it

optical density [OD]	Binder
2.63	B1
3.74	B2
3.62	B3
3.55	B4
3.69	B5
3.42	B6
3.41	B7
3.62	B8
3.56	B9
3.28	B10
3	B11
3.65	B12
3.66	B13
3.15	B14
3.59	B15
3.72	B16
1.6	B17
2.99	B18

optical density [OD]	Binder
3.64	B19
3.29	B20
3.15	B21
3.6	B22
3.57	B23
3.2	B24
3.25	B25
3.27	B26
3.46	B27
1.83	B28
3.6	B29
3.24	B30
3.5	B31
3.64	B32
3.65	B33
3.64	B34
3.33	B35

Target: T1, biotinylated goat anti-human kappa light chain
T1 construct: Positive control of the ELISA
Assay: ELISA; positive control
Method in brief: as §1

optical density [OD]	Binder
3.6	B1
3.17	B2
3.22	B3
3.3	B4
3.18	B5
3.18	B6
3.38	B7
3.16	B8
3.56	B9
3.09	B10
3.69	B11
3.22	B12
3.22	B13
3.33	B14
3.21	B15
2.81	B16
3.52	B17
3.59	B18

optical density [OD]	Binder
3.22	B19
3.39	B20
3.3	B21
3.22	B22
3.18	B23
2.99	B24
3.19	B25
3.59	B26
3.25	B27
3.57	B28
3.21	B29
3.4	B30
3.45	B31
3.06	B32
3.19	B33
2.92	B34
3.18	B35
